# According to US20090280473A1:
# Assays:
# Assay in all cases: cell-based or functional assay
# [1] = target: Dengue virus 2 (DV2, strain New Guinea C) E fusion protein (Dengue virus 2) (UniProt P14340)
# [2] = target: Dengue virus 1 (DV1, strain Western Pacific) E fusion protein (Dengue virus 1) (UniProt P17763)
# [3] = target: Semliki Forest virus E1 fusion protein, low pH-induced trimeric form (full-length viral E1 of cell-b (Semliki Forest virus) (UniProt P03315))
substance,measurement,setting,value
"DV2DIIIH1 (dengue virus 2 E domain III plus helix 1 of the stem, residues 296-415) (from UniProt P14340 576-695)",percent inhibition of DV2 fusion in the FIA at 50 µM,[1],70 % inhibition
same,percent inhibition of DV1 fusion in the FIA at 50 µM,[2],70 % inhibition
"DIIIS (SFV E1 domain III plus stem, Met + residues 291-412) (from UniProt P03315 1106-1227)","inhibition of SFV fusion with BHK cells, fusion-infection assay (FIA)",[3],6 µM
"DIII (SFV E1 domain III, Met + residues 291-383) (from UniProt P03315 1106-1198)",percent inhibition of SFV fusion in the FIA at ˜80 µM,[3],60 % inhibition
